The source of these data is paper PMC4899722.

Assay [1] concerns the target ASIC1a-2a-1a concatamer (rat) (UniProt P55926).
The target in assay [2] is ASIC1a-2a-2a concatamer (rat) (UniProt P55926).
For assay [3], the target named is heteromeric ASIC1a/2a (oocytes co-expressing ASIC1a and ASIC2a) (rat) (UniProt P55926).

Take “psalmotoxin 1 (PcTx1) (from UniProt P60514 1-40) (peptide)”: the current left after 50 nM PcTx1 in the conditioning solution (pH 6.95), activation with pH 4.0, two-electrode voltage clamp in Xenopus oocytes; percent of the first current amplitude turned out to be 15.7% in assay [1], 64.8% in assay [2] and 66.5% in assay [3].
